In PMC9671094:

Target: ApexGT2 trimer (HIV-1 isolate BG505)
Assay: cryo-EM structure

B1: PCT64 35S Fab (Fab, V domains shown)
VH: EVQLVESGGGLVKPGGSLRLACVGSEFTFSEAWMTWVRQAPGKGLEWVGHMRPTTEGGAKDYAAAVRGRFTIARDDSKSTLYLQMNSLKIEDTGVYYCMTGVERGDFWSDDYSQHYNTYLIDVWGKGTTVTVSS
VL: EIVLTQSPGTLSLSPGDRATLSCRATQSVGGDYFAWYQQRPGQSPRLLIYGTSRRAAGIPDRFSGSGSGTDFTLTIDRLEPEDFAVYYCRQYETSFTFGPGTKVDIK
Question: For B1, which stoichiometry N (Fab per trimer) is on record?
Answer: 1
